From patent US20020076800

Target: T1, Human α2Macroglobulin, P01023
T1 chain: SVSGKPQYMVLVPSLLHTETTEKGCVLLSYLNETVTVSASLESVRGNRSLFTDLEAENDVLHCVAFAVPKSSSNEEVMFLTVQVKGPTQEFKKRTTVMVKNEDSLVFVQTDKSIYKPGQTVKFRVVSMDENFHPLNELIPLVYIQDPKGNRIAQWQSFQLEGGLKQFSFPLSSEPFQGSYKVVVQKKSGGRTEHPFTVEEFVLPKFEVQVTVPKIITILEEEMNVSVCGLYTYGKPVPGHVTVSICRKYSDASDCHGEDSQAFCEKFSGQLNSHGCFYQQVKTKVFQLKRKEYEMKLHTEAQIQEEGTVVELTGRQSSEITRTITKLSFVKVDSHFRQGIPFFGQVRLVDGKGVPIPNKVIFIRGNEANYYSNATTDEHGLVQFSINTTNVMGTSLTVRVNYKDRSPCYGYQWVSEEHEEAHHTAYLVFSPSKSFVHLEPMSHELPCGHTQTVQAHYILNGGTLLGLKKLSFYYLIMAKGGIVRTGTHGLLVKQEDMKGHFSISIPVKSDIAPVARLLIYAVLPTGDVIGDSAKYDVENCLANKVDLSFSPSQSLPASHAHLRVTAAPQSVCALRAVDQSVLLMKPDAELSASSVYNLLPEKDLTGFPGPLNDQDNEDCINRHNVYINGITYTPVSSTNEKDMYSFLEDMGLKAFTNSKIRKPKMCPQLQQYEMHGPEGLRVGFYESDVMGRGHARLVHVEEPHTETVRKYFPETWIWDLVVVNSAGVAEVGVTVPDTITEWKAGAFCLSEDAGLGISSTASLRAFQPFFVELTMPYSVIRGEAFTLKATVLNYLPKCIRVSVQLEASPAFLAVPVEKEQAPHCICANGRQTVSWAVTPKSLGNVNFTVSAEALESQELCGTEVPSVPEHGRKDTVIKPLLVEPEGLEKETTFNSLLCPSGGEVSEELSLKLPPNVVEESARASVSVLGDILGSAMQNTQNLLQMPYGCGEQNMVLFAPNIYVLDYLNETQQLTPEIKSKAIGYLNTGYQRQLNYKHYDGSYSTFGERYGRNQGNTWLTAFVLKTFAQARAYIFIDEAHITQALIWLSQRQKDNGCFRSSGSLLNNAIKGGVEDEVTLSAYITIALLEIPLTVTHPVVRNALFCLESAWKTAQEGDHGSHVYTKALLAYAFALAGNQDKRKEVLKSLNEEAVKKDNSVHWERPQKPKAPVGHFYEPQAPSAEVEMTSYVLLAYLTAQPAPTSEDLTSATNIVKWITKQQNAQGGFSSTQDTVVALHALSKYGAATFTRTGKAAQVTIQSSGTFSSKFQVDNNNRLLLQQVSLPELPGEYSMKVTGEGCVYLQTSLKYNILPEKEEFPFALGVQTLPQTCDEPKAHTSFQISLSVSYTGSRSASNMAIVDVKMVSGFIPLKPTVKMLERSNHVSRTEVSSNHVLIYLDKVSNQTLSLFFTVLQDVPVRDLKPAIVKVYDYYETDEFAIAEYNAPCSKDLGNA

B1: HipHum 35 construct no.2 (recombinant HH35 protein, catalytic domain only, with a six histidine tag at the amino terminal) (protein)
chain: HHHHHHRRSPRAPLSLSRRGWQPRGYPDGGAAQAFSKRTLSWRLLGEALSSQLSVADQRRIVALAFRMWSEVTPLDFREDLAAPGAAVDIKLGFGRGRHLGCPRAFDGSGQEFAHAWRLGDIHFDDDEHFTPPTSDTGISLLKVAVHEIGHVLGLPHTYRTGSIMQPNYIPQEPAFELDWSDRKAIQKLY
With B1 the “α2Macroglobulin trapping (protein gel), evidence for protease activity” value was “αmacroglobulin capture by Hiphum 35, demonstrating that Hiphum 35 has protease activity”.
